# Laboratory results as given in publication PMC5963734 (Neuron, 2018).
# No end group written: not given here.
# Target: full length calmodulin (recombinant, Xenopus cDNA), used with Ca2+ (Xenopus, UniProt P0DP33 1-149)
# Assay: fluorescence polarisation
binder,measurement,value
fluorescein-MDCLCIVTTKKYR (cysteine pairing not given here) [fluorescein-labeled PSD-95 peptide 1-13],binding result,binds
